Sequences and labels used below:
T1: rat CD40 antigen (ACROBiosystems) (rat, UniProt A6JXD6 20-193)
T1 construct: Bought antigen coated on ELISA plates; construct not described
T1 sequence: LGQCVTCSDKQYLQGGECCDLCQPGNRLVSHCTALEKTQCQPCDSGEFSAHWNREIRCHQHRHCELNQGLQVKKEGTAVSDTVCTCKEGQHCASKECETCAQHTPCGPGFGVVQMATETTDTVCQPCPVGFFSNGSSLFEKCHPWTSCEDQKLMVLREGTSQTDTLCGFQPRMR

B1: anti-CD40 monoclonal antibody 1653CD (antibody, human IgG2, kappa, V domains shown)
VH: EVQLVESGGGLVQPGGSLRLSCAASGFTFSDYYMSWVRQAPGKGLEWVGFIRNKANAYTTEYAASVKGRFTISRDNSKSTLYLQMNSLRAEDTAVYYCARYGGLKKGWYFDLWGQGTLVTVSS
VL: DIQMTQSPSSLSASVGDRVTITCRASQGIRNYLNWYQQKPGKAPKLLIYYTSSLQSGVPSRFSGSGSGTDYTLTISSLQPEDFATYYCQQGINLPWTFGGGTKVEIKR
B2: anti-CD40 monoclonal antibody 1652CD (antibody, human IgG2, kappa, V domains shown)
VH: B1 VH with S79N, K105R, K106Q, L112V
VL: B1 VL with G28D, S53R, L54R, Q55D, Y87F, I92K, N93T
B3: anti-CD40 monoclonal antibody 1609CD (antibody, human IgG2, kappa, V domains shown)
VH: B1 VH with D31N, A57G, K106I
VL: B1 VL with G28T, R30S, N31S, S53T, I92N, N93A, L94Y
B4: anti-CD40 monoclonal antibody 1654CD (antibody, human IgG2, kappa, V domains shown)
VH: B1 VH with D31N, S87R, K106V
VL: B1 VL with G28S, R30S, N34A, Y50A, T51A, I92S, N93S, L94Y
B5: anti-CD40 monoclonal antibody 1606CD (antibody, human IgG2, kappa, V domains shown)
VH: B1 VH with A57G, S79N, K105R, K106Q, L112V
VL: B1 VL with G28D, S53R, L54R, Q55D, Y87F, I92K, N93T
B6: anti-CD40 monoclonal antibody 1655CD (antibody, human IgG2, kappa, V domains shown)
VH: B1 VH with D31N, K106I
VL: B1 VL with G28T, R30S, N31S, S53T, I92N, N93A, L94Y
B7: anti-CD40 monoclonal antibody 1607CD (antibody, human IgG2, kappa, V domains shown)
VH: B1 VH with A57G
VL: B1 VL
B8: anti-CD40 monoclonal antibody 1605CD (antibody, human IgG2, kappa, V domains shown)
VH: B1 VH with D31N, G49A, L104I, K105R, K106V
VL: B1 VL with G28D, S53R, I92Q, N93S, L94F
B9: anti-CD40 monoclonal antibody 1608CD (antibody, human IgG2, kappa, V domains shown)
VH: B1 VH with D31N, A57G, S87R, K106V
VL: B1 VL with G28S, R30S, N34A, Y50A, T51A, I92S, N93S, L94Y

Where a chain is given by its changes, count along the chain named.

T4 sequence (P27512 24-193 limits assumed): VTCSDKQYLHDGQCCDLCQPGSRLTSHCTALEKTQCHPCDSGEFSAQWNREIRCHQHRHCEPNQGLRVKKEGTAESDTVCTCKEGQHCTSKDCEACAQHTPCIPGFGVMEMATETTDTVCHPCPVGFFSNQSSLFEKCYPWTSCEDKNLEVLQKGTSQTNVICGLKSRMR

The first experiment deals with T2, human CD40 antigen (ACROBiosystems) (human, UniProt P25942 21-193).
T2 construct: Bought antigen coated on ELISA plates; construct not described
T2 sequence (P25942 21-193 limits assumed): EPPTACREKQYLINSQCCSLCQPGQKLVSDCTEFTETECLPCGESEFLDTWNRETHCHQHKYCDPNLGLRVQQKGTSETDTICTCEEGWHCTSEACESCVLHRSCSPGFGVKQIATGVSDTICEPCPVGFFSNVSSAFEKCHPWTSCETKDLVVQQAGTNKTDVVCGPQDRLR
The experiment is described as follows: ELISA, coated antigen. The method, then: (§1) The binding ability of monoclonal antibody to human CD40, as well as the species specificity, was detected using an enzyme-linked immunosorbent assay (ELISA). The specific method is as follows: human CD40, cynomolgus CD40, rat CD40, and mouse CD40 antigens (all purchased from ACROBiosystems) were coated with 1 μg/mL carbonate buffer (pH=9.6) in an ELISA plate at 100 μL per well, followed by incubation at 4° C. overnight. The wells were washed 5 times with PBST. 300 μL/well of PBST containing 1% BSA was added to block the wells, and the plate was incubated at room temperature for 1 hour. The wells were washed 5 times with PBST. […] The wells were washed 5 times with PBST. […] The wells were washed 5 times with PBST. Colorimetric substrate TMB was added at 100 μL per well and allowed to develop color at room temperature for 10 minutes, followed by the addition of 1 M sulfuric acid to terminate the reaction. The OD₄₅₀ nm was read on a microplate reader to analyze the results, and the EC₅₀ was calculated using a 4-parameter fit binding curve.
As for B1, the EC50 (in general, the concentration needed to bring the measured effect to its halfway point) worked out at 0.02 nM.

Take B2: a half-maximal effect (EC50) was put at 0.022 nM.

In the case of B3, the response was half-maximal at 0.022 nM (EC50).

B4 showed a half-maximal effective concentration (EC50) of 0.014 nM.

As for B5, a half-maximal response (EC50) required 0.024 nM.

Regarding B6, it took 0.024 nM to reach a half-maximal effect (EC50).

Molecule B7 registered an EC50 of 0.021 nM.

The molecule B8 displayed an EC50 of 0.022 nM.

B9 returned an EC50 of 0.022 nM.

The target in another experiment is T3, cynomolgus CD40 antigen (ACROBiosystems) (cynomolgus, UniProt G7PG38 21-193).
T3 construct: Bought antigen coated on ELISA plates; construct not described
Put plainly: ELISA, coated antigen. The method, then: as §1
(In general: An ELISA detects its analyte on a solid surface through an enzyme-linked reagent.)
For the molecule B1, the EC50 was determined as 0.018 nM.

Regarding B2, the response was half-maximal at 0.018 nM (EC50).

The molecule B3 yielded an EC50 of 0.02 nM.

In turn, B4 gave an EC50 of 0.015 nM.

In the case of B5, the EC50 came to 0.02 nM.

B6 returned an EC50 of 0.009 nM.

As to B7, a half-maximal response (EC50) required 0.017 nM.

The molecule B8 had an EC50 of 0.021 nM.

Regarding B9, it took 0.021 nM to reach a half-maximal effect (EC50).

In another experiment the target is T1, rat CD40 antigen (ACROBiosystems). Put plainly: ELISA, coated antigen. The method, then:
as §1
Take B1: the binding result is “no binding”.

On to B2, for which the binding result is “no binding”.

With B3, the binding result is given as “no binding”.

For B4, the binding result was “no binding”.

For the molecule B5, the binding result is reported as “no binding”.

Turning to B6, the binding result was “no binding”.

Take B7: the binding result was “no binding”.

Take B8: the binding result was “no binding”.

Consider B9, for which the binding result is reported as “no binding”.

The next experiment has as its target T4, mouse CD40 antigen (ACROBiosystems) (mouse, UniProt P27512 24-193, limits assumed).
T4 construct: Bought antigen coated on ELISA plates; construct not described
Put plainly: ELISA, coated antigen. As to the method:
as §1
Take B1: the binding result was “no binding”.

For B2, the binding result is “no binding”.

On to B3, for which the binding result is “no binding”.

With B4, the binding result is given as “no binding”.

Take B5: the binding result was “no binding”.

In the case of B6, the binding result is reported as “no binding”.

For B7, the binding result is “no binding”.

Consider B8, for which the binding result is recorded as “no binding”.

B9: the binding result is on record as “no binding”.

The values above are taken from patent US20250376533A1 (FUTUREGEN BIOPHARMACEUTICAL BEIJING, published 2025).
